Test results from patent EP2090664A1 (Universität Konstanz, dated 2009).
No end group written: not given here. *: point of attachment. Biotin = O=C1N[C@H]2[C@H](CS[C@H]2CCCCC(=O)*)N1

B1: N-terminal peptide Aβ (1-16) (peptide)
peptide: Biotin-GGGGGDAEFRHDSGYEVHHQK
notes: Biotinylated synthetic peptide of the ELISA series
B2: HCC (93-120)-peptide (peptide)
peptide: RKAFCSFQIYAVPWQGTMTLSKSTCQDA
notes: Synthetic peptide; also called synthetic HCC (93-120)-peptide
B3: human cystatin C (HCC) (other)
chain: SSPGKPPRLVGGPMDASVEEEGVRRALDFAVGEYNKASNDMYHSRALQVVRARKQIVAGVNYFLDVELGRTTCTKTQPNLDNCPFHDQPHLKRKAFCSFQIYAVPWQGTMTLSKSTCQDA
notes: also called intact HCC; complete HCC
B4: HCC (101-117)-peptide (peptide)
peptide: IYAVPWQGTMTLSKSTC
notes: Synthetic peptide; also called C-terminal HCC peptide

Tests used:
human cystatin C (HCC) = molecular target: B3; experiment: ELISA, biotinylated Aβ-peptides on adsorbed HCC
N-Cysteinyl-Aβ (1-40) [1] = molecular target: T1, N-Cysteinyl-Aβ (1-40) (N-terminal Cys attached via a thioether bond to UltraLink-Iodoacetyl gel); experiment: affinity-MS, HCC (93-120) on the immobilized Cys-Aβ (1-40) column
T1 construct: also called Cys-Aβ (1-40); immobilized Cys-Aβ-peptide

β-amyloid (Aβ) Aβ (1-40) = molecular target: T2, β-amyloid (Aβ) Aβ (1-40); experiment: affinity-MS, Aβ (1-40) on the HCC micro-column
T2 construct: also called Aβ-peptide

N-Cysteinyl-Aβ (1-40) [2] = molecular target: T1, N-Cysteinyl-Aβ (1-40); experiment: summary of affinity-MS, epitope excision and ELISA results

B1: no binding (human cystatin C (HCC)).

B2: binds (N-Cysteinyl-Aβ (1-40) [1]).

B3: binds (β-amyloid (Aβ) Aβ (1-40)).

B4: binds (N-Cysteinyl-Aβ (1-40) [2]).
